In publication PMC5996960 (Molecular Biology of the Cell, 2018):

Biological target: T1, His6-tagged yeast cyclin C (S. cerevisiae, UniProt P47821 1-323)
T1 sequence (looked up): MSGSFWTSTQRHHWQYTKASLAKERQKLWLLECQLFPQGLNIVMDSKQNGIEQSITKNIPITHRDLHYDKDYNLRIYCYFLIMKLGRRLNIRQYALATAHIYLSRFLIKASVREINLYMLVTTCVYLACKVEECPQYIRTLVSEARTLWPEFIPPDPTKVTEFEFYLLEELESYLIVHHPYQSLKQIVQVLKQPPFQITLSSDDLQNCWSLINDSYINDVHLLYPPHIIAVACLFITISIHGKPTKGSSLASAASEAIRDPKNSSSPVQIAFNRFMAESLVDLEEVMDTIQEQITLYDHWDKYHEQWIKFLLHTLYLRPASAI
Assay: pull-down

binding result: binds
B1: GST-Med13^742-844 (domain or fragment, S. cerevisiae, UniProt P38931 742-844, looked up)
chain: DIPQTESPLKTVDSSIQPIESNIKMTLEDNNVTSNPSEFTPNMVNSEISNLPKDKSGIPEFTPADPNLSFESSSSLPFLLRHMPLASIPDIFITPTPVVTISE
